Laboratory results published in patent publication US20180291110A1.

Target: complement factor C1q (Sigma, C1740) (UniProt P02745)
Experiment: flow cytometry, C1q on antibody-coated BT-474 cells

Sequence of complement factor C1q (Sigma, C1740) (P02745 23-245, chain 1 of 3): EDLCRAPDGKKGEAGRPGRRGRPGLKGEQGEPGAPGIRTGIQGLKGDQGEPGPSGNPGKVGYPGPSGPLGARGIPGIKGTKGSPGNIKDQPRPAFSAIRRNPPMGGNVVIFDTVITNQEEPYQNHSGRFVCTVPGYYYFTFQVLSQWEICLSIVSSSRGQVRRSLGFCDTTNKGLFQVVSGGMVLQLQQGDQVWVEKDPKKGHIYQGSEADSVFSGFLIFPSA
Sequence of complement factor C1q (Sigma, C1740) (P02746 28-253, chain 2 of 3, further chain): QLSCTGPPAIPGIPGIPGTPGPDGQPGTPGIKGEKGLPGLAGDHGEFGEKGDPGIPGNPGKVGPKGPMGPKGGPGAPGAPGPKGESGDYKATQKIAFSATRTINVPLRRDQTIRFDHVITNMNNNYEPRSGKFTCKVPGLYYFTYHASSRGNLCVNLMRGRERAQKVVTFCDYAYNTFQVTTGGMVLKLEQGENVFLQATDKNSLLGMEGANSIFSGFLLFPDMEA
Sequence of complement factor C1q (Sigma, C1740) (P02747 29-245, chain 3 of 3, further chain): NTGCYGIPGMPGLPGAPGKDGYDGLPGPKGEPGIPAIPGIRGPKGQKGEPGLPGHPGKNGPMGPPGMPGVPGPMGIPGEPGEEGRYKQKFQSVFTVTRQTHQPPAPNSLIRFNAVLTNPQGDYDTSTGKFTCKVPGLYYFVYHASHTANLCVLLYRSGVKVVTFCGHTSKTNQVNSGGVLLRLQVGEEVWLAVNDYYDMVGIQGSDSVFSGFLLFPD

“combination of trastuzumab and pertuzumab” showed a PE-signal (geomean) of 2160.
